Results reported in the supplement of paper PMC5998384.

Assays:
[1] = system: HeLa Kyoto; assay: melting temperature (median over replicates), in situ; higher = more thermally stable
[2] = system: HeLa Kyoto; assay: solubility in G1/S (NP-40 vs SDS abundance) (log2 ratio); higher = more soluble; conditions: cell cycle stage: G1/S
[3] = system: HeLa Kyoto; assay: thermal stability score vs G1/S (z-score of summed log2 fold changes over temperatures); higher = more thermally stable than in G1/S
[4] = system: HeLa Kyoto; assay: solubility change mitosis vs G1/S (difference of NP-40 vs SDS log2 ratios) (log2 ratio difference); higher = more soluble in mitosis
[5] = cell cycle stage: early G1 (4.5 h after nocodazole release)
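Wherever melting temperature (median over replicates), in situ is given: HeLa Kyoto cells synchronized by double thymidine or nocodazole block, proteins quantified by TMT10plex mass spectrometry, three independent biological replicates.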
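Wherever solubility change mitosis vs G1/S (difference of NP-40 vs SDS log2 ratios) is given: synchronized HeLa Kyoto cells (double thymidine block for G1/S, nocodazole release for mitosis), protein amounts in NP-40 versus SDS lysates quantified by mass spectrometry, three biological replicates.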
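Wherever solubility in G1/S (NP-40 vs SDS abundance) is given: HeLa Kyoto cells arrested at G1/S by double thymidine block, proteins quantified by TMT10plex mass spectrometry in mild NP-40 versus SDS extracts, three biological replicates.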
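Wherever thermal stability score vs G1/S (z-score of summed log2 fold changes over temperatures) is given: synchronized HeLa Kyoto cells, proteins quantified by TMT10plex mass spectrometry, three biological replicates, mitosis taken 0.5 h after nocodazole release, G1/S directly after double thymidine block.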

Sequence	melting temperature ([1]; cell cycle stage: G1/S) [°C]	melting temperature ([1]; cell cycle stage: mitosis) [°C]	solubility in G1/S (log2) [2]	thermal stability score [3, 5]	thermal stability score ([3]; cell cycle stage: mitosis)	solubility change mitosis (log2) [4]
MDVRRLKVNELREELQRRGLDTRGLKAELAERLQAALEAEEPDDERELDADDEPGRPGHINEEVETEGGSELEGTAQPPPPGLQPHAEPGGYSGPDGHYAMDNITRQNQFYDTQVIKQENESGYERRPLEMEQQQAYRPEMKTEMKQGAPTSFLPPEASQLKPDRQQFQSRKRPYEENRGRGYFEHREDRRGRSPQPPAEEDEDDFDDTLVAIDTYNCDLHFKVARDRSSGYPLTIEGFAYLWSGARASYGVRRGRVCFEMKINEEISVKHLPSTEPDPHVVRIGWSLDSCSTQLGEEPFSYGYGGTGKKSTNSRFENYGDKFAENDVIGCFADFECGNDVELSFTKNGKWMGIAFRIQKEALGGQALYPHVLVKNCAVEFNFGQRAEPYCSVLPGFTFIQHLPLSERIRGTVGPKSKAECEILMMVGLPAAGKTTWAIKHAASNPSKKYNILGTNAIMDKMRVMGLRRQRNYAGRWDVLIQQATQCLNRLIQIAARKKRNYILDQTNVYGSAQRRKMRPFEGFQRKAIVICPTDEDLKDRTIKRTDEEGKDVPDHAVLEMKANFTLPDVGDFLDEVLFIELQREEADKLVRQYNEEGRKAGPPPEKRFDNRGGGGFRGRGGGGGFQRYENRGPPGGNRGGFQNRGGGSGGGGNYRGGFNRSGGGGYSQNRWGNNNRDNNNSNNRGSYNRAPQQQPPPQQPPPPQPPPQQPPPPPSYSPARNPPGASTYNKNSNIPGSSANTSTPTVSSYSPPQPSYSQPPYNQGGYSQGYTAPPPPPPPPPAYNYGSYGGYNPAPYTPPPPPTAQTYPQPSYNQYQQYAQQWNQYYQNQGQWPPYYGNYDYGSYSGNTQGGTSTQ [HNRNPUL1]	46.9	49.2	-0.152	3.72	6.44	-0.0379
MDWGTELWDQFEVLERHTQWGLDLLDRYVKFVKERTEVEQAYAKQLRSLVKKYLPKRPAKDDPESKFSQQQSFVQILQEVNDFAGQRELVAENLSVRVCLELTKYSQEMKQERKMHFQEGRRAQQQLENGFKQLENSKRKFERDCREAEKAAQTAERLDQDINATKADVEKAKQQAHLRSHMAEESKNEYAAQLQRFNRDQAHFYFSQMPQIFDKLQDMDERRATRLGAGYGLLSEAELEVVPIIAKCLEGMKVAANAVDPKNDSHVLIELHKSGFARPGDVEFEDFSQPMNRAPSDSSLGTPSDGRPELRGPGRSRTKRWPFGKKNKPRPPPLSPLGGPVPSALPNGPPSPRSGRDPLAILSEISKSVKPRLASFRSLRGSRGTVVTEDFSHLPPEQQRKRLQQQLEERSRELQKEVDQREALKKMKDVYEKTPQMGDPASLEPQIAETLSNIERLKLEVQKYEAWLAEAESRVLSNRGDSLSRHARPPDPPASAPPDSSSNSASQDTKESSEEPPSEESQDTPIYTEFDEDFEEEPTSPIGHCVAIYHFEGSSEGTISMAEGEDLSLMEEDKGDGWTRVRRKEGGEGYVPTSYLRVTLN [TRIP10]	50.7	49.9	0.397	-0.196	-0.283	-0.00359
MEAADASRSNGSSPEARDARSPSGPSGSLENGTKADGKDAKTTNGHGGEAAEGKSLGSALKPGEGRSALFAGNEWRRPIIQFVESGDDKNSNYFSMDSMEGKRSPYAGLQLGAAKKPPVTFAEKGELRKSIFSESRKPTVSIMEPGETRRNSYPRADTGLFSRSKSGSEEVLCDSCIGNKQKAVKSCLVCQASFCELHLKPHLEGAAFRDHQLLEPIRDFEARKCPVHGKTMELFCQTDQTCICYLCMFQEHKNHSTVTVEEAKAEKETELSLQKEQLQLKIIEIEDEAEKWQKEKDRIKSFTTNEKAILEQNFRDLVRDLEKQKEEVRAALEQREQDAVDQVKVIMDALDERAKVLHEDKQTREQLHSISDSVLFLQEFGALMSNYSLPPPLPTYHVLLEGEGLGQSLGNFKDDLLNVCMRHVEKMCKADLSRNFIERNHMENGGDHRYVNNYTNSFGGEWSAPDTMKRYSMYLTPKGGVRTSYQPSSPGRFTKETTQKNFNNLYGTKGNYTSRVWEYSSSIQNSDNDLPVVQGSSSFSLKGYPSLMRSQSPKAQPQTWKSGKQTMLSHYRPFYVNKGNGIGSNEAP [TRIM29]	50.6	50.9	-0.308	-0.827	-1.46	0.303
MEAARPPPTAGKFVVVGGGIAGVTCAEQLATHFPSEDILLVTASPVIKAVTNFKQISKILEEFDVEEQSSTMLGKRFPNIKVIESGVKQLKSEEHCIVTEDGNQHVYKKLCLCAGAKPKLICEGNPYVLGIRDTDSAQEFQKQLTKAKRIMIIGNGGIALELVYEIEGCEVIWAIKDKAIGNTFFDAGAAEFLTSKLIAEKSEAKIAHKRTRYTTEGRKKEARSKSKADNVGSALGPDWHEGLNLKGTKEFSHKIHLETMCEVKKIYLQDEFRILKKKSFTFPRDHKSVTADTEMWPVYVELTNEKIYGCDFIVSATGVTPNVEPFLHGNSFDLGEDGGLKVDDHMHTSLPDIYAAGDICTTSWQLSPVWQQMRLWTQARQMGWYAAKCMAAASSGDSIDMDFSFELFAHVTKFFNYKVVLLGKYNAQGLGSDHELMLRCTKGREYIKVVMQNGRMMGAVLIGETDLEETFENLILNQMNLSSYGEDLLDPNIDIEDYFD [PYROXD1]	49.6	49.9	-0.102	-0.128	-0.037	-0.158
MEADKDDTQQILKEHSPDEFIKDEQNKGLIDEITKKNIQLKKEIQKLETELQEATKEFQIKEDIPETKMKFLSVETPENDSQLSNISCSFQVSSKVPYEIQKGQALITFEKEEVAQNVVSMSKHHVQIKDVNLEVTAKPVPLNSGVRFQVYVEVSKMKINVTEIPDTLREDQMRDKLELSFSKSRNGGGEVDRVDYDRQSGSAVITFVEIGVADKILKKKEYPLYINQTCHRVTVSPYTEIHLKKYQIFSGTSKRTVLLTGMEGIQMDEEIVEDLINIHFQRAKNGGGEVDVVKCSLGQPHIAYFEE [NMI]	55.4	55.7	0.127	-1.52	-4.03	-0.0719
